Data from patent publication US20260274944A1 (VECT HORUS, published 2026).
Changes are numbered by the printed parent chain.

How the values were obtained:
[1] = target: T1, human RAGE (hRAGE) fused to EGFP, stably expressed on CHO cells (human, UniProt Q15109 23-404); assay: flow cytometry on CHO-hRAGE-EGFP cells, 4 °C, anti-6His detection
T1 construct: whole, on cells; also called CHO-hRAGE-EGFP; human receptor; not shown: EGFP from the pEGFP-N1 vector (Clontech), fused at the C-terminal (intracellular) end

[2] = target: T2, mouse RAGE (mRAGE) fused to EGFP, expressed on CHO cells (mouse, UniProt Q62151 23-402); assay: flow cytometry on CHO-mRAGE-EGFP cells, 4 °C, anti-6His detection
T2 construct: whole, on cells; also called CHO-mRAGE-EGFP; murine RAGE; not shown: EGFP from the pEGFP-N1 vector (Clontech), fused at the C-terminal (intracellular) end

[3] = target: T3, HA-mRAGE (mouse, UniProt Q62151 23-402); assay: immunocytochemistry, 250 nM on transfected CHO cells, anti-human Fc detection
T3 construct: mature; Transiently expressed on CHO cells; also called full-length mRAGE with N-terminal HA tag; not shown: HA tag at the N-terminus; EGFP fused at the C-terminal end (pEGFP-N1)
Text: To determine the binding domain of VHH-RAGE-Fc, inventors suppressed RAGE domains sequentially, expressed the resulting truncated constructs mRAGE-ΔV, mRAGE-ΔV-C1 (FIG. 9-A) and compared VHHRAGE-Fc binding on the full-length construct (mRAGE and HA-mRAGE) in transfected CHO cells. An HA tag was introduced in the N-ter of each receptor to validate appropriate presentation of the extracellular domain using anti-HA, non-permeabilizing immunocytochemistry. EGFP was fused at the C-terminal end to enable easy visualization of the truncated and full-length receptor by fluorescence microscopy. […] The synthetised DNA fragments were cloned into a pEGFP-N1 plasmid after restriction using XhoI EcoRI and ligation. CHO WT cells were transfected using jetPEI™ with the different plasmid constructs according to the manufacturer's instructions.
For immunocytochemistry, living transfected cells were incubated with 250 nM VHH-RAGE-hFc or anti-HA antibody for 1 hr at 37° C. Cells were then fixed using PBS-PFA 4%.

[4] = target: T1, human RAGE (hRAGE) fused to EGFP, …; assay: immunocytochemistry, 50 nM on living CHO-hRAGE-EGFP cells, anti-hFc detection
Description: (§1) Immunocytochemistry experiments on CHO cell lines expressing the mouse or human RAGE fused to EGFP were performed to confirm the ability of fusion proteins to bind the RAGE. For these experiments, VHH-Fc fusion proteins were incubated at 50 nM on living cells, detected using an Alexa594-conjugated anti-hFc antibody after cells fixation with PBS-PFA 4% and permeabilization of the cell membrane with PBS-0.1% Triton X100 and photographed with a confocal microscope.

[5] = target: T2, mouse RAGE (mRAGE) fused to EGFP, …; assay: immunocytochemistry, 50 nM on living CHO-mRAGE-EGFP cells, anti-hFc detection
Description: as §1

[6] = target: T4, RAGE in mice lungs (endogenous mouse RAGE at the alveolar epithelium) (mouse, UniProt Q62151 23-402); assay: double immunofluorescence on lung sections of mice injected at 35 nmol/kg, 48 hours post injection
T4 construct: whole, on cells; also called RAGE in the lung
Description: FIG. 10. Cellular binding/co-localization of VHH-Fc on RAGE in mice lungs. Immunocytochemistry was performed on the lungs of mice injected with VHH ctrl-Fc, VHH 1-Fc and VHH 5-Fc into tail vein at 35 nmol/kg. The mice were perfused with saline 48 hours post injection and the lungs were incubated in PFA 4% overnight. Lungs were extensively washed in PBS 1× and incubated 2 days in sucrose 30%. Double-immunofluorescent staining of lung tissue with anti-RAGE (Alexa Fluor 488, green) and with VHH-Fc (Alexa Fluor 594, red) antibodies were performed on lung sections. Cell nuclei were labeled with Hoechst #33342 at 0.5 μg/ml (blue). Co-labeling appears in yellow/orange in the merged pictures (right panel). Representative photographs were taken with a confocal microscope with 20× and 63× magnification.
To confirm the ability of fusion proteins to bind RAGE in vivo, immunocytochemistry experiments were performed on lungs of mice injected into the tail vein at 35 nmol/kg with VHH ctrl-Fc, VHH 1-Fc and VHH 5-Fc. Mice were perfused with saline 48 hours post injection and lungs were incubated in PFA 4% overnight. Lungs were extensively washed in PBS 1× and incubated 2 days in sucrose 30% before being snap frozen. The fixed lung was embedded in OCT and cut in 14 μm thick sections. […] Cell nuclei were labeled with Hoechst #33342. […]

[7] = target: T1, human RAGE (hRAGE) fused to EGFP, …; assay: apparent Kd (Kd app), flow cytometry on CHO-hRAGE-EGFP cells
Description: FIG. 3. Apparent Kd determination of VHHs on hRAGE- and mRAGE-expressing CHO cell lines. (A) CHO-hRAGE-EGFP and CHO-mRAGE-EGFP cells were incubated 1 hr at 4° C. with increasing concentrations of VHHs, detected with a mouse anti-6His (1/1000) and an Alexa647-conjugated anti-mouse secondary antibody (1/400). Measurements were performed using flow cytometry. The ratio of fluorescence intensity for each point was normalized with the corresponding EGFP signal (receptor expression) and gave rise to the arbitrary units. Data are presented as mean±SEM of at least 3 independent experiments. (B) Characteristics of selected VHHs: Molecular Weight (Da); Apparent Kd on human RAGE (nM); Apparent Kd on mouse RAGE (nM). Data are presented as mean±SEM of at least 3 independent experiments.
The binding properties of VHHs with affinity for RAGE were tested using flow cytometry, and apparent affinities (K_{d app}) were determined. […] Fluorescence levels were assessed using an Attune N×T flow cytometer (Thermo Fisher Scientific).
Three VHHs (VHH 1, 2 and 5) out of 5 bound both the human and the mouse RAGE and induced a concentration-dependent shift of the signal (FIG. 3-A). […] Moreover, no labelling of the CHO WT control cells was detected with all the tested VHHs (not shown). The VHH K_{d app} were calculated using GraphPad Prism software.

[8] = target: T2, mouse RAGE (mRAGE) fused to EGFP, …; assay: apparent Kd (Kd app), flow cytometry on CHO-mRAGE-EGFP cells
Description: The binding properties of VHHs with affinity for RAGE were tested using flow cytometry, and apparent affinities (K_{d app}) were determined. All experiments were performed in 96 well plates using 2×10⁵ cells/well, at 4° C. with shaking. CHO cell lines expressing RAGE fused to EGFP or CHO WT cells were saturated with PBS/BSA 2% solution during 30 min to avoid nonspecific binding, followed by incubation with purified VHHs at concentrations ranging from 50 μM to 0.5 nM for 1 hr. After one wash in PBS/BSA 2%, cells were incubated for 1 hr with an anti-6His tag antibody (mouse), washed twice with PBS/BSA 2%, and incubated for 1 hr with an Alexa647-conjugated anti-mouse secondary antibody. After two last washes in PBS/BSA 2%, cells were fixed by incubation for 15 min with PBS/PFA 2%, washed once with PBS and finally resuspended in PBS. Fluorescence levels were assessed using an Attune N×T flow cytometer (Thermo Fisher Scientific).
The binding properties of VHH-siRNA conjugates with affinity for RAGE were tested using flow cytometry, and apparent affinities (K_{d app}) were determined. The same protocol as the one described in example IV was used.
All VHH-siRNAs bound the mRAGE and induced a concentration-dependent shift of the signal (FIG. 4-A), confirming that the VHH conjugated to both the siTTRm and the siSOD1m retained the binding to the receptor of interest. The VHH-siRNA K_{d app} were calculated using GraphPad Prism software.

[9] = target: T2, mouse RAGE (mRAGE) fused to EGFP, …; assay: flow cytometry competition on CHO-mRAGE-EGFP cells; competitor against tracer VHH 1-Fc
Description: FIG. 8. Competition assay between VHHs and VHH 1-Fc. (A) Principle of the competition test. In a first step, CHO-mRAGE-EGFP cells were incubated 1 hr at 4° C. with the competitor in dilution series. Second, the tracer at EC80-90 was added and incubated for 1 hr at 4° C. […] Measurements were performed using flow cytometry. (B) CHO-mRAGE-EGFP cells were incubated with the competitors (VHHs). Tracer (VHH 1-Fc) at EC80 was then added and detected with Alexa647-conjugated anti-hFc antibody (1/400).

T1 sequence (Q15109 23-404): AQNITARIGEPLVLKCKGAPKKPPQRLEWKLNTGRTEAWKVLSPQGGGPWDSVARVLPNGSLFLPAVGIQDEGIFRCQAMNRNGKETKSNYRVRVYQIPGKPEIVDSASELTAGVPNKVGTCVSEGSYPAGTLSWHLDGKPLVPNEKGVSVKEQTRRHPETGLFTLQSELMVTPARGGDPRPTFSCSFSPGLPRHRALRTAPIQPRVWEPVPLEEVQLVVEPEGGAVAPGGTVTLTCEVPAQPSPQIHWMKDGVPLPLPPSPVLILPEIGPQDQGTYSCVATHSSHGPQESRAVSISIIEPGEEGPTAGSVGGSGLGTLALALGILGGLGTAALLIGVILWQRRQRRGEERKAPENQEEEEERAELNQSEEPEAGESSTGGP
T2 sequence (Q62151 23-402): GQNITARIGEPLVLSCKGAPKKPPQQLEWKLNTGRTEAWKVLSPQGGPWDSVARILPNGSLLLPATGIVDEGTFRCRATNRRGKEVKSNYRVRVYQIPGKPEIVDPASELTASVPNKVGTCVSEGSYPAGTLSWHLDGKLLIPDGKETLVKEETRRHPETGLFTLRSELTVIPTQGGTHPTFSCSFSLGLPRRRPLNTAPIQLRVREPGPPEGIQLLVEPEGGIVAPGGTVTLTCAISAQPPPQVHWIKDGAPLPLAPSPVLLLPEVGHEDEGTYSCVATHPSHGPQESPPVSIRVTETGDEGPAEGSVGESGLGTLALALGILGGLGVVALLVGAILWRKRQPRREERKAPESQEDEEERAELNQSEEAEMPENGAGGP
T3 sequence (Q62151 23-402): as above
T4 sequence (Q62151 23-402): as above

B1: VHH 1 (VHH)
VHH: QVQLVQSGGGLVQPGGSLRLSCAVSGSIFSSATMGWYRQAPGKQRELAARISSGGSTNYLDSVKGRFTISRDNAKNTVYLQMNSLKLEDTAVYYCRLQANFGLVDYWGKGTQVTVSS
notes: also called sdAb VHH 1
binding result [1]: binds
binding result [2]: binds

B2: VHH 1-Fc (Fc fusion)
chain: B1 VHH
notes: VHH with no tag fused to a human IgG1 Fc; also called VHHRAGE-Fc fusion; VHH-RAGE-Fc; not shown: human IgG1-Fc fragment encoded by the pINFUSE-IgG1-Fc2 vector (InvivoGen)
binding result [3]: binds
binding result [4]: binds
binding result [5]: binds
binding result [6]: binds

B3: VHH 2 (VHH)
VHH: QVQLVQSGGGLVQAGGSLRLSCAASGSVSSIYAMGWYRQAPGKQREWVTTITGRGITDYAASVKGRFTISRDTAKNAVYLQMNNLKPEDTARYYCKIDRRGYAPYWGQGTQVTVSS
notes: also called sdAb VHH 2
Kd [7]: 350 nM
binding result [2]: binds

B4: VHH 2-Fc (Fc fusion)
chain: B3 VHH
notes: as for B2
binding result [3]: binds
binding result [5]: binds

B5: VHH 5 (VHH)
VHH: EVQLVESGGGLVQPGGSLRLSCAASGTIFSLNPMGWYRQAPGKQLELVALISDSGTANYADFVRGRFTISRDTTKKTLYLQMNSLEPEDTAVYYCRSTFAAGNFYWGQGTQVTVSS
notes: also called sdAb VHH 5
Kd [7]: 204 nM
Kd [8]: 1490 nM

B6: VHH 2-siSOD1m (other)
VHH: QVQLVQSGGGLVQAGGSLRLSCAASGSVSSIYAMGWYRQAPGKQREWVTTITGRGITDYAASVKGRFTISRDTAKNAVYLQMNNLKPEDTARYYCKIDRRGYAPYWGQGTQVTVSSAAAEQKLISEEDLNGAAHHHHHHGS
modifications: siRNA siSOD1m linked through an azido linker put by bacterial transglutaminase on the glutamine residue of the myc tag, then copper-free click chemistry
notes: VHH-siRNA conjugate
Kd [8]: 238 nM

B7: VHH 4-siSOD1m (other)
VHH: EVQLVESGGGLVQAGGSLRLSCVASGRTFSNYAMAWFRQAPGEEREFVARISWRGGRTSYADSVKGRFTISRDNAKNTVYLQMISLKPEDTAVYYCASEGGAFGGVYSATGSYDYWGQGTQVTVSSAAAEQKLISEEDLNGAAHHHHHHGS
modifications: siRNA siSOD1m linked through an azido linker put by bacterial transglutaminase on the glutamine residue of the myc tag, then copper-free click chemistry
notes: VHH-siRNA conjugate
Kd [8]: 6.8 nM

B8: VHH 3-Fc (Fc fusion)
chain: QVQLVQSGGGLVQAGGSLRLSCVASGRTFSNYAMAWFRQAPGEEREFVARISWSGGRTSYADSVKGRFTISRDNAKNTVYLQMISLKPEDTAVYYCATEAGAFGGVYSSTGSYDYWGQGTQVTVSS
notes: as for B2
binding result [3]: binds
binding result [5]: binds

B9: VHH 4 (VHH)
VHH: B8 chain with Q1E, Q6E, S54R, T98S, A100G, S109A
notes: also called sdAb VHH 4
Kd [8]: 32 nM

B10: VHH 3 (VHH)
VHH: B8 chain
notes: also called sdAb VHH 3
binding result [9]: binds
